{"source": "patent US20240033354A1", "molecular_target": "TcdB1 holotoxin (recombinant full-length TcdB1, VPI10463 strain, expressed in Bacillus megaterium) (Clostridium difficile, VPI10463 strain) (UniProt P18177)", "test": "cell-based or functional assay", "data": [{"substance": "Fab fragment of bezlotoxumab", "values": [{"measurement": "cell rounding assay on HeLa cells, TcdB1 10 pM, 6 h: reduction of cell-rounding at 2 µM (% reduction of cell-rounding at 2 µM)", "result": 40}]}]}
